Source: patent US20080311122A1 (AstraZeneca / MedImmune, published 2008)

T1: HMG1 B Box peptide amino acids 150-183
T1 peptide: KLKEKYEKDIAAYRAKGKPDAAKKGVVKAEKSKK

T2: HMG1 purified from bovine (calf) thymus (bovine, UniProt P10103 2-215)
T2 construct: also called Calf thymus HMGB1; thymus HMG1
T2 sequence (looked up): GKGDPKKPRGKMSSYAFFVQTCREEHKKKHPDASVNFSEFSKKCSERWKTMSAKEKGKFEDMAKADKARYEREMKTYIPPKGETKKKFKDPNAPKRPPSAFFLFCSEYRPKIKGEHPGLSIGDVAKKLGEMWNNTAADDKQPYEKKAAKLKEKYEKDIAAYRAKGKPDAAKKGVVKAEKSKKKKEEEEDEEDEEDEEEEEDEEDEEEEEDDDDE

T3: HMG2 (UniProt P40673 2-209, limits assumed)
T3 construct: also called HMGB2; HMBG2
T3 sequence (looked up): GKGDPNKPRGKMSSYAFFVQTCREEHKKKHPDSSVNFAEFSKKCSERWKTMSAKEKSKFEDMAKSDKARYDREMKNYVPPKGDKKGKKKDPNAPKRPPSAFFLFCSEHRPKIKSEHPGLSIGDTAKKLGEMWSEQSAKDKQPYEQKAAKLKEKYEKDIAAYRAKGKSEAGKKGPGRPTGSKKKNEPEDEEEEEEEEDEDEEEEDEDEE

T4: HMG1 B Box peptide amino acids 91-169
T4 construct: also called HMG1 peptide 91-169
T4 peptide: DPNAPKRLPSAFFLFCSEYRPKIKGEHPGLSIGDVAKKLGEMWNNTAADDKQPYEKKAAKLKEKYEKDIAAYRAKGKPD

T5: activated HMG1 prepared from LPS stimulated THP-1 cells (human, UniProt P09429 1-215)
T5 sequence (looked up): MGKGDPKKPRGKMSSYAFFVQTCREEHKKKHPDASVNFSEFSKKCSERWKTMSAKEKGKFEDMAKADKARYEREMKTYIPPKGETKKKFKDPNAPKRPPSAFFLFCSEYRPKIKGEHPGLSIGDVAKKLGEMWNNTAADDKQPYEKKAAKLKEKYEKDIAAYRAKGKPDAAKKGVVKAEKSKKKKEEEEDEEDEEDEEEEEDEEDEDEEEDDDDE

T6: recombinant HMG1 purified from E. coli as a calmodulin binding protein (CBP) fusion protein (human, UniProt A9RA84 1-215 (Papio anubis entry))
T6 sequence: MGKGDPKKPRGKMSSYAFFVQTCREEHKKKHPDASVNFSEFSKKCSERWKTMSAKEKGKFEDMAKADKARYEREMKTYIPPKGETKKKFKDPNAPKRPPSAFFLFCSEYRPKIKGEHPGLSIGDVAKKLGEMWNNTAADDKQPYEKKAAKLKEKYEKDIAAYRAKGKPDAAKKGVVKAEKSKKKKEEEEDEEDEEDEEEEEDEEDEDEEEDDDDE

T7: recombinant rat HMGB-1, Europium-labeled (rat, UniProt P63159 1-215, limits assumed, Europium label, molar ratio of HMGB-1 to Eu 1:5)
T7 construct: also called Europium-labeled HMGB-1; recombinant HMG1 (Thp-1 assay)
T7 sequence (looked up): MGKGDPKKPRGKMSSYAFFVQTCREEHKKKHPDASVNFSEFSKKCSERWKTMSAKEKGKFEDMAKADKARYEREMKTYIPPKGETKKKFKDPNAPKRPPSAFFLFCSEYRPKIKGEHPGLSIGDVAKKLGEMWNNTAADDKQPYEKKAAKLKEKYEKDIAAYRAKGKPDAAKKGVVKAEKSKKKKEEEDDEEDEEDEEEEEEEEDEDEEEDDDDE


How the values were obtained:
[1] = biological target: T1, HMG1 B Box peptide amino acids 150-183; assay: ELISA, wells coated with HMG1 B Box peptide 150-183 at 10 ug/ml
Description: (§1) The plate was then blocked with 4% milk powder dissolved in PBS at 37° C. for 1 hour. The blocking solution was removed and replaced with human anti-HMG1 antibodies at various concentrations (see FIGS. 5A-B). […] HRP activity was detected with Sureblue HRP substrate (KPL). Plates were read at 450 nm using a Kinetic Microplate Reader (Molecular Devices). […] After washing and blocking with 1% BSA in PBS, the biotinylated peptides were individually added into the avidin coated wells and incubated for 30 min at room temperature. The serial diluted antibody G4, S16 and S6 at the initial concentration at 10 μg/ml were then transferred into the wells followed by adding mouse anti human IgG-HRP conjugate (Pierce). Detection was accomplished by adding 50 μl of tetramethylbenzidine (TMB) substrate (KPL) and the absorbance was read at […].

[2] = biological target: T2, HMG1 purified from bovine (calf) thymus; assay: ELISA, wells coated with calf thymus HMGB1 at 5 ug/mL, antibody at 10 ug/mL, anti-human kappa/lambda-HRP, OD 490
Description: (§2) Binding to HMG1 vs. HMG2: Ultra high-binding ELISA plates (ThermoLab systems, #3855) were coated with either 5 ug/mL of Calf thymus HMGB1 or HMBG2 diluted in 10 mM Phosphate buffered saline (PBS), pH 7.2 and incubate overnight at 4 degrees. The plates were washed twice with Ca and Mg free PBS and 100 microliters of anti-HMGB1 antibody diluted in 10 mM PBS, pH 7.2+1% bovine serum albumin (BSA) to a final concentration of 10 ug/mL was added to each well and the plates were incubated 1 hour at room temperature. The wells were washed three times with 100 μl of PBS, pH 7.2. HRP labeled goat-anti-human IgG Kappa-chain (KPL, #14-10-10) and goat-anti-human IgG Lambda-chain (KPL, #14-10-11) were diluted in 10 mM PBS+1% BSA 1:1000 and 100 μl were added to each well and incubated for 1 hour at room temperature. The wells were then washed three times with 100 μl of PBS, pH 7.2. OPD substrate (Pierce chemical company, #34006) was prepared following the manufacturers instructions and 100 μl of prepared substrate was added to each well and the plates incubated at room temperature in the dark for 20-30 minutes. The reaction was stopped with the addition of 100 μl of 2M H₂SO₄, and the plates read on a plate reader at a wavelength of 490 nm.

HMG2 = biological target: T3, HMG2; assay: ELISA, wells coated with HMGB2 at 5 ug/mL, OD 490
Description: as §2

[3] = biological target: T4, HMG1 B Box peptide amino acids 91-169; assay: ELISA, wells coated with HMG1 B Box peptide 91-169 at 10 ug/ml
Description: as §1

[4] = biological target: T5, activated HMG1 prepared from LPS …; assay: cell-based or functional assay
[5] = biological target: T6, recombinant HMG1 purified from E. coli …; assay: cell-based or functional assay
[6] = biological target: T6, recombinant HMG1 purified from E. coli …; assay: BIAcore, mAb immobilized, HMG1 injected, steady-state model
Description: HMG1 Binding Affinity via BIAcore Analysis: All experiments were performed on a BIAcore 3000 instrument (BIAcore, Inc., Piscataway, N.J.). Briefly, each mAb was immobilized to a CM5 sensor chip using a standard amino coupling chemistry. Separately a reference (control) flow cell was also prepared. Two-fold, serial dilutions of HMG1 in instrument buffer were sequentially injected at a slow flow rate over the individual mAb and reference flow-cell surfaces. Following the binding and dissociation of HMG1, the mAbs surfaces were regenerated with a brief pulse of 1M NaCl-50 mM NaOH. At the end of each experiment, the binding curves were evaluated using a steady-state model available through the BIA evaluation software supplied by BIAcore, Inc. (Piscataway, N.J.).

[7] = biological target: T6, recombinant HMG1 purified from E. coli …; assay: ELISA, rHMG1 preincubated with antibody, coated RAGE-Fc
Description: HMG1 binding to RAGE-Ig by ELISA: 50 μl/well of RAGE-Fc fusion protein at 5 μg/ml in PBS was added to each well of an ELISA plate and incubated overnight at 4° C. The plate was then blocked with 200 μl of 5% milk at 37° C. for 1 hr and washed 3× with PBS/Tween. 50 μl/well of diluted HMGB1 solution. For dose curves, HMGB1 concentrations started at 4 ug/ml in PBS. For antibody blocking the HMGB1 was preincubated in another plate with human anti-HMG1 antibodies or buffer, then transferred to the RAGE-coated plate. The plates were then incubated at room temperature for 2 hours and washed 3×. To detect any HMG1 bound to the immobilized RAGE-Fc a mixture of biotinylated mouse anti-HMG1 mAbs (10D4, 4H11, 3E10 and 5C12) each at 1 ug/ml, total Ab: 4 ug/ml, were added to each well and the plate was incubated for 1 hour at room temperature. The plate was then washed and Strepavidin-HPR was added to each well and incubated 15 min. The plate was then washed 3× and blotted dry. 100 μl of TMB developing agent was added and the plate read at 650 nm. Values were calculated as percent of inhibition with HMG1 alone equal to 0% inhibition. The data in FIG. 9 and summarized in Table 1 represent the average of two separate experiments.

[8] = biological target: T7, recombinant rat HMGB-1, Europium-labeled; assay: inhibition of binding of Eu-labeled HMGB-1 to THP-1 cells
Description: HMG1 binding to THP-1 Cells: Recombinant rat HMGB-1 was labeled using Eu-labelling Kit from PerkinElmer. Molar ratio of HMGB-1 to Eu is 1:5. THP-1 were cultured as the protocol from ATCC. Cells were harvested and suspended at concentration 1×10⁶/ml in assay buffer containing 1×DELFIA L*R binding buffer (PerkinElmer), 50% of DELFIA stabilizer (PerkinElmer) and 0.05% of sodium azide. 100 μl of cells (1×10⁵) was added into wells in 96 well cell culture plate. The plate was incubated with gentle shaking at 4° C. for one hour. 100 μl of assay buffer containing 2 nM of Europium-labeled HMGB-1 mixed with various concentrations (333, 166.5, 83.25, 41.6, 20.8, 10.4 and 5.2 nM) of human anti-HMGB1 antibodies E11 or G2 or soluble human RAGE-Fc, were added into each wells respectively. After one hour incubation with gentle shaking at 4° C., the cells were washed four times with 1×L*R wash buffer (PerkinElmer) by centrifuging at 1200 rpm×5 min. 200 μl of enhancement solution was added into each well to dissociate and enhance Eu fluorescence at 615 nm. The fluorescence was measured with Wallac Victor Fluorometer. Assay was performed in triplicate and human antibody R3-47 was used the negative isotype control.

Binder	binding result [1]	binding result [2]	binding result (HMG2)	binding result [3]	IC50, inhibition of native activated HMG1 stimulated IL-6 release from human PBMC [4]	IC50, inhibition of HMG1 stimulated NO release from macrophages [5]	IC50, inhibition of rHMG1 stimulated IL-1β release from human PBMC [5]	IC50, inhibition of rHMG1 stimulated IL-6 release from human PBMC [5]	Kd [6]	percent inhibition of HMG1 binding to RAGE-Fc [7]	IC50, inhibition of rHMG1 stimulated IL-12 release from human PBMC [5]	IC50, inhibition of rHMG1 stimulated TNF-α release from human PBMC [5]	IC50 [8]
anti-HMG1 antibody S17 (antibody, V domains shown) VH: EVQLLESGGGLVQPGGSLRLSCAASGFTFSYYDMHWVRQAPGKGLEWVSRISPSGGYTWYADSVKGRFTISRDNSKNTLYLQMNSLRAEDTAVYYCTRGRYTSGWHEYFDPWGQGTLVTVSS VL: DIQMTQSPSSLSASVGDRVTITCRASQSIGTYLNWYQQKPGTAPKVLIYAASSLQSGVPSRFSGSGSGTDFTLTISSLQPEDFSTYYCQQSYNTPRTFGQGTKLEIK	no binding (tested: 10 ug/ml (log 1.00))	binds	no binding (tested: 10 ug/mL (not on the sheet))	no binding (tested: 10 ug/ml (log 1.00))	11.5 nM	41.7 µg/mL	0.0809 µg/mL	0.162 nM	–	–	–	–	–
anti-HMG1 antibody S10 (antibody, V domains shown) VH: EVQLLESGGGLVQPGGSLRLSCAASGFTFSWYDMWWVRQAPGKGLEWVSWIVPSGGITAYADSVKGRFTISRDNSKNTLYLQMNSLRAEDTATYYCARGNYGPSPFDYWGQGTLVTVSS VL: DIQMTQSPGTLSLSPGERATLSCRATQSVRKNFLAWYQQKPGQAPRLLIYDASSRATGIPDRFSGSGSGTDFTLTISRLEPEDFAVYYCQQYGNSPIIFGQGTRLEIK	no binding (tested: 10 ug/ml (log 1.00))	binds	no binding (tested: 10 ug/mL (not on the sheet))	no binding (tested: 10 ug/ml (log 1.00))	–	–	2.59 µg/mL	0.324 nM	54 nM	≥ 35%	1.13 µg/mL	0.875 µg/mL	–
anti-HMG1 antibody S14 (antibody, V domains shown) VH: EVQLLESGGGLVQPGGSLRLSCAASGFTFSWYETGWVRQAPGKGLEWVSGISPSGGYTQYADSVKGRFTISRDNSKNTLYLQMNSLRAEDTAVYYCARSGVGATKIFDYWGQGTLVTVSS VL: DIQMTQSPSSLSASVGDRVTIICRANERINTYLNWYQQKPGKAPKLLISGTSSLESGVPSRFSGSGSGTEFTLSISSLQPEDFASYYCQQSYSSPYTFGQGTNLEIR	no binding (tested: 10 ug/ml (log 1.00))	binds	no binding (tested: 10 ug/mL (not on the sheet))	no binding (tested: 10 ug/ml (log 1.00))	–	–	0.0678 µg/mL	0.191 nM	205 nM	–	–	0.0662 µg/mL	–
anti-HMG1 antibody G2 (antibody, V domains shown) VH: EVQLLESGGGLVQPGGSLRLSCAASGFTFSWYKMQWVRQAPGKGLEWVSGISPSGGSTAYADSVKGRFTISRDNSKNTLYLQMNSLRAEDTAVYYCAKMGLFNTGNSYVDYWGQGTLVTVSS VL: AQSELTQPPSVSEAPGQRVTISCSGSTSNIGNNAVIWYQQLPGKAPKLLIYYDDLLPSGVSDRFSGSKSGTSGSLAISGLQSEDEADYYCASWDDNLNGPLFGGGTKLTVL	no binding (tested: 10 ug/ml (log 1.00))	binds	no binding (tested: 10 ug/mL (not on the sheet))	no binding (tested: 10 ug/ml (log 1.00))	–	–	5.03 µg/mL	0.994 nM	–	–	1.26 µg/mL	1.35 µg/mL	73.3 nM
